Drawing on EP4810516A1, this text covers EC50 and Max MFI for one molecule.

In the assay the target is γ9δ2 TCR on human γ9δ2 T cells (human) (UniProt Q99603). Description: FACS, serially diluted antibody on γ9δ2 T cells, anti-human Fc secondary.
Sequence of γ9δ2 TCR on human γ9δ2 T cells (human) (Q99603 21-122, stated change not applied, chain 1 of 2): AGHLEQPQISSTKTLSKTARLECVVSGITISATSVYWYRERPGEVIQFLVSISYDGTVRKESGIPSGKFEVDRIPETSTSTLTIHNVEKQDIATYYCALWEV
Sequence of γ9δ2 TCR on human γ9δ2 T cells (human) (A0JD36 20-115, stated change not applied, chain 2 of 2, further chain): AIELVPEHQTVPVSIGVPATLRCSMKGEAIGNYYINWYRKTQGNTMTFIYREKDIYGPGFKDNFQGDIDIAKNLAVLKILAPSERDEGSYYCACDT

B1: SDP01369 (antibody, human IgG1, kappa, V domains shown)
VH: EVQLVESGGGLVKPGGSLRLSCAASGFTFSSYAMSWVRQAPGKRLEWVASISSGGSTYYPDSVKGRFTISRDNAKNSLYLQMNSLRAEDTAVYYCARDGYPPFDYWGQGTTVTVSS
VL: DIQMTQSPSSVSASVGDRVTITCKASQNVGTNVAWYQQKPGKAPKALIYSASYRYSGVPSRFSGSGSGTDFTLTISSLQPEDFATYYCQQYNSFPLTFGQGTKLEIKR
The term EC50 denotes the concentration that produces a half-maximal response. B1 returned a concentration giving a half-maximal response (EC50) of 1.74 nM and a Max MFI of 15000 MFI.
